T1: amphyphisin SH3 (AMPH_HUMAN), P49418
T1 chain: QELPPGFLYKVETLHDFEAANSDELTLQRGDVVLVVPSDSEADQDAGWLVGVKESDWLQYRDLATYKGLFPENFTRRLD


Key:
[1] = target: T1, amphyphisin SH3 (AMPH_HUMAN), P49418; assay: SPOT array
[2] = target: endophilin SH3 (SH3G2_HUMAN), Q99962; assay: SPOT array

normalised SPOT signal, Boehringer light units (BLU); mean over the file's lines of this peptide [1]	normalised SPOT signal, Boehringer light units (BLU); mean over the file's lines of this peptide [2]	Binder
47.2	1040	VARSPKRPAWGSRR [Q9P1W0 38-51]
151	630	VAPRPARPPGDLGP [O00144 174-188]
54	647	TTTPPTKPPSFNLH [Q99966 72-86]
177	123	TRRVLLRPEKRPPV [P34969 436-449]
71	1100	SFHSPRRPYASPLL [P57073 407-420]
34.9	806	TTVRPAKPPVVDRS [O95630 222-236]
118	150	TTKVIRRPRRGRMG [O75334 571-584]
56.7	54.7	TSPTFRRPKTLRLR [P29316 42-55]
75.4	609	VAEPPPRPPPPPPP [Q9NZM4 1290-1304]
29.4	16.2	TTVLIRRPDLRYQL [Q02410 746-759]
691	715	TYSLLRRPFRQVLA [Q96P69 293-306]
189	166	TYTAPPRPPKKREY [Q9P1Z0 111-124]
36.5	684	TSWMPRRPSSPLKE [Q9H2L5 83-96]
89.1	54.1	TRSVLKRPERSQEE [P30304 268-281]
24.7	4930	TTPPPGRPPAPSSE [Q96KN1 287-301]
161	186	TSVPLARPLRTSEE [O94942 425-438]
32.4	210	TSFEPRRPPPLRPG [Q9P2S2 1586-1599]
31.6	0	SGATLKRPMEFEAA [Q9H9L7 3-16]
567	8780	TRPPPIRPPFSHPL [P58840 117-131]
57.4	67.6	TSGSFRRPESPRPR [O15054 552-565]
3160	11100	TTRRPPRPPGSSRK [Q9C0H3 154-168]

normalised SPOT signal, Boehringer light units (BLU); mean over the file's lines of this peptide [1]	normalised SPOT signal, Boehringer light units (BLU); mean over the file's lines of this peptide [2]	Binder
804	10400	TRPPPIRPPFSHPI [P10323 306-320]
30.1	74.4	TTVLIKRPDLKYQL [Q99767 658-671]
38	138	TRVQPRRPTKGTHR [Q96EK0 35-48]
1000	913	TRYSPYRPYRSVHQ [O60281 946-959]
64	346	TWQGLRRPPSVLGH [Q9C094 1911-1924]
568	96.3	TRTDPTRPIRTPVI [Q9ULT9 312-325]
363	7730	TRWPPSRPPPPSPF [Q9NP08 321-335]
42.1	61.6	AAVTLKRPPPYQWD [Q9NRJ4 1113-1126]
2180	534	TRYMFSRPFRKHGV [P46778 10-23]
84.9	138	TSAVLRRPQKGRLA [Q13135 548-561]
-0	4.2	TSPAPHRPPKRVKA [Q9NRC7 337-350]
31.3	196	TYQHLRRPRGLSSL [O60721 37-50]
5540	14100	TSAPPSRPPPPRAT [Q9UKN4 408-422]
28.3	26.9	SGKAFRRPSDLFRH [Q9NPV1 31-44]
220	4010	TSPAPHRPPKRGPL [Q9UQD1 353-366]
1740	2500	SGGRPARPDRGPEP [Q92914 53-66]
33.9	26.8	TSLSLRRPPGPASQ [Q15477 130-143]
90.5	451	TRPKPLKPPSDLSM [P33121 45-59]
25.3	60.8	TVNLFKRPLPKSKP [Q9UNP7 5-18]
1400	13300	TRSPPPRPPPPAIN [Q9BQL3 97-111]
2520	430	VASGPSRPGREEHI [Q04671 237-250]

Reference: article PMC314469, “Protein Interaction Networks by Proteome Peptide Scanning” (PLoS Biology, 2004)
